Literature values in patent US10463717B2, “Compositions in the form of an injectable aqueous solution comprising amylin, an amylin receptor agonist or an amylin analog, and a co-polyamino acid” (ADOCIA, priority 2016, dated 2019).
Where two headings read alike, the source gives them in different places. No end group written: not given here.

Row | pH of the solution above which fibrils form (described for the marketed peptide) | Compound | Stability of amylin in solution (acidic pH) | Stability of amylin in solution (neutral pH)
1 | higher than 5.5 | CC[C@H](C)[C@H](NC(=O)[C@@H]1CCCN1C(=O)CNC(=O)[C@H](Cc1ccccc1)NC(=O)[C@H](CC(N)=O)NC(=O)[C@H](CC(N)=O)NC(=O)[C@H](CO)NC(=O)[C@H](CO)NC(=O)[C@H](Cc1c[nH]cn1)NC(=O)[C@@H](NC(=O)[C@H](CC(C)C)NC(=O)[C@H](Cc1ccccc1)NC(=O)[C@H](CC(N)=O)NC(=O)[C@H](C)NC(=O)[C@H](CC(C)C)NC(=O)[C@H](CCCNC(=N)N)NC(=O)[C@H](CCC(N)=O)NC(=O)[C@@H](NC(=O)[C@H](C)NC(=O)[C@@H]1CSSC[C@H](NC(=O)[C@@H](N)CCCCN)C(=O)N[C@@H](CC(N)=O)C(=O)N[C@@H]([C@@H](C)O)C(=O)N[C@@H](C)C(=O)N[C@@H]([C@@H](C)O)C(=O)N1)[C@@H](C)O)C(C)C)C(=O)N[C@@H](CC(C)C)C(=O)N1CCC[C@H]1C(=O)N1CCC[C@H]1C(=O)N[C@H](C(=O)N[C@@H](CC(N)=O)C(=O)N[C@H](C(=O)NCC(=O)N[C@@H](CO)C(=O)N[C@@H](CC(N)=O)C(=O)N[C@H](C(=O)N[C@@H](Cc1ccc(O)cc1)C(N)=O)[C@@H](C)O)C(C)C)[C@@H](C)O [pramlintide, reference compound] |  | 
2 |  | amylin: 37 aminoacids peptide which is co-stored and co-secreted with insulin (KCNTATCATQRLANFLVHSSNNFGAILSSTNVGSNTY; not fully specified (C-terminus, bridges); cysteine pairing not given here; UniProt P10997 34-70, looked up) | about fifteen minutes | less than a minute
